The values that follow come from publication PMC10945830.

The assay concerns the target Anthopleura YFP (AnthoYFP) from Neon Anthopleura sola (Anthopleura sola (endogenous in tentacles)). The assay is described as follows: SEC-MALS; isolated AnthoYFP pigment; self-association, tetramer; conditions of the SEC-MALS run not told in the main text. On the technique in general: Size exclusion chromatography separates by hydrodynamic size, large species first.

One may read the stoichiometry N as a count of units in the complex or per binding partner.

As to “Anthopleura YFP (AnthoYFP) from Neon Anthopleura sola (natural protein)”, the stoichiometry N stood at 4.
